Reference: article PMC8539749 (Viruses, 2021)
Where “and” joins values, the source holds several entries; their conditions need not be identical. Equal values may be shown once. No end group written: not given here.

Molecular target: Recombinant Gn (residues 21–452) of the SFTSV membrane glycoprotein polyprotein (severe fever with thrombocytopenia syndrome virus)
Assay: ELISA

B1: Biotinylated HKU-P1 (peptide)
peptide: KKRGFGS
modifications: not fully specified
binding affinity: 700 µg/mL
signal over background at 250 µg/mL (fold): 2 fold and 3 fold
